Laboratory results taken from US20160031996A1 (CSL, published 2016).

T1: human IL-3Rα E51Q/S59A double mutant, full length (human, UniProt P26951 19-378)
T1 chain: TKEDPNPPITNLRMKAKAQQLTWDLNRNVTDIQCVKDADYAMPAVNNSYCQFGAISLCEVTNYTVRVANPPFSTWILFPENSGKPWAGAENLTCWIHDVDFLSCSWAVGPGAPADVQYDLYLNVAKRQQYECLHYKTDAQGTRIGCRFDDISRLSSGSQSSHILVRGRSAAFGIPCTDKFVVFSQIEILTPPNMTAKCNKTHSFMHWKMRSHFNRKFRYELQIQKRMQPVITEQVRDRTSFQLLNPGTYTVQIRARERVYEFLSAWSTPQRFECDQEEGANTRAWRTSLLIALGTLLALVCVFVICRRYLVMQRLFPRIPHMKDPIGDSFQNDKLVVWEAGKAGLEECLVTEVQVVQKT

T2: human IL-3Rα E51Q/P88T double mutant, full length (human, UniProt P26951 19-378)
T2 chain: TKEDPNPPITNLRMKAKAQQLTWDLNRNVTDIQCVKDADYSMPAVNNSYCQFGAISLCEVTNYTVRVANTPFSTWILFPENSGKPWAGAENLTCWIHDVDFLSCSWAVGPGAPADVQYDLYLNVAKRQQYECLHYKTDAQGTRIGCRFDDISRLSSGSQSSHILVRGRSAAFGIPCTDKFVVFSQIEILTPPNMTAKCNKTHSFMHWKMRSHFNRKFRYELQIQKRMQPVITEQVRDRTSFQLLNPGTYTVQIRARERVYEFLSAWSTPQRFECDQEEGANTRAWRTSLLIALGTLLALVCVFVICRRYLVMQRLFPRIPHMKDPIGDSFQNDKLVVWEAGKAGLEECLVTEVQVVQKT

T3: human IL-3Rα E51Q/S59A/P88T triple mutant, full length (human, UniProt P26951 19-378)
T3 chain: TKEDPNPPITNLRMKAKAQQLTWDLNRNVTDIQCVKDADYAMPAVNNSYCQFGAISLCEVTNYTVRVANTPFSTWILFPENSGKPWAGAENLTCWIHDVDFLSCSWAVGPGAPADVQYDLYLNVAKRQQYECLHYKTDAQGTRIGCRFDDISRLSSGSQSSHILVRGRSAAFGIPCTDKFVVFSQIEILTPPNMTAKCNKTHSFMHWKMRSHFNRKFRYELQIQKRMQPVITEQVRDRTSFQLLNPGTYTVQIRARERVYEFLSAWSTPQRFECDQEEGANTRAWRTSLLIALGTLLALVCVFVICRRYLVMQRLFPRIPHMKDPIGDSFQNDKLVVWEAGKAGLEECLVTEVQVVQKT

T4: human IL-3Rα S59A/P88T double mutant, full length (human, UniProt P26951 19-378)
T4 chain: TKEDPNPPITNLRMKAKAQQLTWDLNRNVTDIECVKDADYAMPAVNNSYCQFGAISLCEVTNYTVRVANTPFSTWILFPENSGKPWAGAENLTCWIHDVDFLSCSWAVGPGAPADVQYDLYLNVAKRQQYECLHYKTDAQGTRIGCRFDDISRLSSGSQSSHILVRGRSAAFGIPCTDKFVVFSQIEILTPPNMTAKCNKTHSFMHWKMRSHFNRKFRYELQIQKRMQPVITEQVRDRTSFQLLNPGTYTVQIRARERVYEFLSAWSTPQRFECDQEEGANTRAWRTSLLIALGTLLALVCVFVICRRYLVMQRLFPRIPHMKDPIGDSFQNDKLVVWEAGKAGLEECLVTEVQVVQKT

T5: human IL-3Rα I94A, full length (human, UniProt P26951 19-378)
T5 construct: expressed in 293F cells; Western blot of whole cell extracts; also called I94, cell surface alanine
T5 sequence: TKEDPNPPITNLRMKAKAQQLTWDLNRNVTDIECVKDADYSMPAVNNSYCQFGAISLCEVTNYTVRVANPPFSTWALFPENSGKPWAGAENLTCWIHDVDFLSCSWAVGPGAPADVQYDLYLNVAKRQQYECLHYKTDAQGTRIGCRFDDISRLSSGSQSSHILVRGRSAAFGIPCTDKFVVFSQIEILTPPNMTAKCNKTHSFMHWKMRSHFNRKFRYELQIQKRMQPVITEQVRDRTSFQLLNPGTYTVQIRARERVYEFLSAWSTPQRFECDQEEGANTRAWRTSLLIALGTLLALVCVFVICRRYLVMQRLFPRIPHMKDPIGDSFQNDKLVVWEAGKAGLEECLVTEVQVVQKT

T6: human IL-3Rα E51A, full length (human, UniProt P26951 19-378)
T6 construct: expressed in 293F cells; Western blot of whole cell extracts; also called E51, cell surface alanine
T6 sequence: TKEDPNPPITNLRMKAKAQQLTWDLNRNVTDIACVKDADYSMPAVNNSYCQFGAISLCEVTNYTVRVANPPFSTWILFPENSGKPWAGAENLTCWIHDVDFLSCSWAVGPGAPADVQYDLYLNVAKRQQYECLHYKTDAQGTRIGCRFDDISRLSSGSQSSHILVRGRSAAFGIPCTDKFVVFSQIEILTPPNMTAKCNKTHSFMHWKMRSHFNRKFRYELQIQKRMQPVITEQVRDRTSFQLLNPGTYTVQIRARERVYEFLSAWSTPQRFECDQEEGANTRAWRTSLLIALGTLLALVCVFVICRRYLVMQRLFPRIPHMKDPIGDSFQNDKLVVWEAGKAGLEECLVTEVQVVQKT


Assays:
[1] = target: T1, human IL-3Rα E51Q/S59A double mutant, …; assay: flow cytometry, MFI normalised to WT
Experimental: (§1) Median fluorescence intensity (MFI) of each antibody was determined for WT IL-3Rα and for each IL-3Rα mutant. The MFI of WT IL-3Rα staining for each antibody was set as 100% then the MFI of each mutant was normalized to a percent of WT staining.

[2] = target: T2, human IL-3Rα E51Q/P88T double mutant, …; assay: flow cytometry, MFI normalised to WT
Experimental: as §1

[3] = target: T3, human IL-3Rα E51Q/S59A/P88T triple …; assay: flow cytometry, MFI normalised to WT
Experimental: as §1

[4] = target: T4, human IL-3Rα S59A/P88T double mutant, …; assay: flow cytometry, MFI normalised to WT
Experimental: as §1

[5] = target: T5, human IL-3Rα I94A, full length; assay: Western blot, whole cell extracts of 293F cells
[6] = target: T6, human IL-3Rα E51A, full length; assay: Western blot, whole cell extracts of 293F cells

Row | MFI as percent of WT staining [1] | MFI as percent of WT staining [2] | MFI as percent of WT staining [3] | MFI as percent of WT staining [4] | binding result [5] | binding result [6] | Binder
1 | 2.4 % of WT MFI | 2.5 % of WT MFI | 2.9 % of WT MFI | 5 % of WT MFI |  |  | antibody CSL362 (antibody, V domains shown) VH: EVQLVQSGAEVKKPGESLKISCKGSGYSFTDYYMKWARQMPGKGLEWMGDIIPSNGATFYNQKFKGQVTISADKSISTTYLQWSSLKASDTAMYYCARSHLLRASWFAYWGQGTMVTVSS VL: DIVMTQSPDSLAVSLGERATINCESSQSLLNSGNQKNYLTWYQQKPGQPPKPLIYWASTRESGVPDRFSGSGSGTDFTLTISSLQAEDVAVYYCQNDYSYPYTFGQGTKLEIKR
2 | 1.4 % of WT MFI | 1.4 % of WT MFI | 1 % of WT MFI | 3 % of WT MFI | no binding | no binding | monoclonal antibody 7G3 (antibody, V domains shown, mouse monoclonal antibody (hybridoma ATCC HB-12009)) VH: EVQLQQSGPELVKPGASVKMSCKASGYTFTDYYMKWVKQSHGKSLEWIGDIIPSNGATFYNQKFKGKATLTVDRSSSTAYMHLNSLTSEDSAVYYCTRSHLLRASWFAYWGQGTLVTVSA VL: DFVMTQSPSSLTVTAGEKVTMSCKSSQSLLNSGNQKNYLTWYLQKPGQPPKLLIYWASTRESGVPDRFTGSGSGTDFTLTISSVQAEDLAVYYCQNDYSYPYTFGGGTKLEIKR
